This is an account of results in patent publication US11786605B2, “Site specific antibody-drug conjugates with peptide-containing linkers” (Mersana Therapeutics, Inc., priority 2020, dated 2023).

In one assay the target is T1, human FcRn (Homo sapiens, UniProt P55899).
T1 construct: purchased Immunitrack
Nature of the assay: Binding kinetics to FcRn by Biolayer Interferometry. Conditions: BLI, 25° C., pH 6.0. The protocol:
(§1) The binding kinetics of the XMT-1535, Conjugate 7, and Conjugate 11 to Fc receptors (FcRn, FcγRI, FcγRIIA (H167), and FcγRIIIA (V176) were determined by Biolayer Interferometry (BLI; ForteBio Octet QKe) at 25° C. To test binding to Fcγ receptors, XMT-1535, Conjugate 7, and Conjugate 11 were diluted to 1 μg/mL in kinetics buffer (1×) and captured on anti-human Fab-CH1 (FAB2G) biosensors for 10 minutes. All dilutions and baseline measurements were done in kinetics buffer (1×). Baseline measurements were performed at […] before and after each capture step. Association measurements to the various Fc receptors were performed at 7 concentrations (from 1 μM to 100 nM, 2-fold serial dilutions) for 5 minutes. Dissociation was performed for 15 minutes. Binding constants were calculated with the global fit averages of the traces using a 1:1 model. Binding constants for XMT-1535, Conjugate 7, and Conjugate 11 to Fc receptors were determined using standard Octet procedures (ForteBio). Kinetic parameters were calculated using Octet software (ForteBio).
To test binding to FcRn receptor, association of XMT-1535, Conjugate 7, and Conjugate 11 to Fab-CH1 (FAB2G) biosensors was performed as described above. […] Association measurements to FcRn protein (Immunitrack) was measured at 7 concentrations (from 1 μM to 100 nM, 2-fold serial dilutions) for 5 minutes. […]

For another assay, the target named is FcγRI (Homo sapiens, UniProt P12314). The assay can be described thus: Binding kinetics to FcγRI by Biolayer Interferometry. The following applies: BLI, 25° C. The protocol: as §1
(§2) Tables IV-VII summarize the Kd (equilibrium dissociation constant), kon (rate of association), and koff (rate of dissociation) for human FcRn (Table IV), FcγRI (Table V), FcγRIIA H167 (Table VI), and FcγRIIIA […] (Table VII) for each test article.

Another assay addresses T2, FcγRIIA (H167) (Homo sapiens, UniProt P12318).
T2 sequence (P12318 34-217 limits assumed): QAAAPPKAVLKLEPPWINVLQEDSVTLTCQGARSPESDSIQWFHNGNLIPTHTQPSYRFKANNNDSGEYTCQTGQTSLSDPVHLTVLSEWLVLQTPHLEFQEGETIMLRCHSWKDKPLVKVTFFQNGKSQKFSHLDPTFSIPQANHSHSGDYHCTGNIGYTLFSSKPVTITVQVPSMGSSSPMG
The assay can be described thus: Binding kinetics to FcγRIIA by Biolayer Interferometry. Conditions: FcγRIIA H167, BLI, 25° C. The protocol: as §1, §2

The target of the next assay is T3, NaPi2b-derived peptide (Homo sapiens, UniProt O95436).
T3 construct: Genscript); purchased Genscript
T3 sequence (O95436 311-340 limits assumed): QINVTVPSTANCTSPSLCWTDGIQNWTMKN
Nature of the assay: Binding kinetics to NaPi2b-derived peptide by Biolayer Interferometry. Conditions: BLI, 25° C. The protocol:
The binding kinetics of XMT-1535, Conjugate 7, and Conjugate 11 to immobilized NaPi2b-derived peptide antigen were determined by Biolayer Interferometry (BLI; Octet; ForteBio). Binding constants for XMT-1535, Conjugate 7, and Conjugate 11 were determined using standard Octet procedures (ForteBio). Biotinylated NaPi2b-derived peptide ([…]-biotin; Genscript) was immobilized to streptavidin octet sensors in kinetics buffer (10×). Sensors were then blocked in kinetics buffer (10×) with biocytin (50 μg/mL). Increasing concentrations of XMT-1535, Conjugate 7, or Conjugate 11 were then associated with immobilized peptide in kinetics buffer (10×).

The test system of another assay is FcγRIIIA (V176). Nature of the assay: Binding kinetics to FcγRIIIA by Biolayer Interferometry. The arrangement: species or system human. The following applies: BLI, 25° C. The protocol: as §1, §2

Chain of FcγRI (P12314 16-374): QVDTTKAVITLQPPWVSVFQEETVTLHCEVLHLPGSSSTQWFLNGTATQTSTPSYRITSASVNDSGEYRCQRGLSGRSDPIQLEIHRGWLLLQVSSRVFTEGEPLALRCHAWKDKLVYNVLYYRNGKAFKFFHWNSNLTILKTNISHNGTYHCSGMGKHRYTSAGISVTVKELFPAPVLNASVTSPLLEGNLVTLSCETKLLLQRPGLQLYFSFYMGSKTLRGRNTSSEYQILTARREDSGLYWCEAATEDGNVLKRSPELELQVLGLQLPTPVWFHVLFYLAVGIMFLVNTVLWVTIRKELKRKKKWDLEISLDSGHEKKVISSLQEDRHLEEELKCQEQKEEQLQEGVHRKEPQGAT
T1 sequence (P55899 24-297 limits assumed): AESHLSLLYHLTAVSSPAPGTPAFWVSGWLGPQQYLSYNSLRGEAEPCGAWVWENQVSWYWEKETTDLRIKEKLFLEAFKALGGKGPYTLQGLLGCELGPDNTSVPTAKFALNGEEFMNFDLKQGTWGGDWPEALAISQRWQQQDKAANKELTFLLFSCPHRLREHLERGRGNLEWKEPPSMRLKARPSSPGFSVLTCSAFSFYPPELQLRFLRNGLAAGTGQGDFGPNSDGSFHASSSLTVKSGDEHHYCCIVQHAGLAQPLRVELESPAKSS
T1 sequence (P61769 21-119 partner): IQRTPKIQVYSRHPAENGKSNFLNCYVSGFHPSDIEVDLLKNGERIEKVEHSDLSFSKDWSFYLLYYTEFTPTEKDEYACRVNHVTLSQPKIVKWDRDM

As for XMT-1535: anti-NaPi2b antibody, the “koff Mean” value with human FcRn stood at 0.000448 s⁻¹; with FcγRI, 0.000192 s⁻¹; with FcγRIIA (H167), 0.308 s⁻¹; in the assay on FcγRIIIA (V176), 0.146 s⁻¹. Besides, the “kon Mean” value in the assay with human FcRn worked out at 160000 M⁻¹ s⁻¹; in the assay with FcγRI, 1.28e+06 M⁻¹ s⁻¹; with FcγRIIA (H167) it was 175000 M⁻¹ s⁻¹; in the assay on FcγRIIIA (V176), 216000 M⁻¹ s⁻¹. Also, the “koff, Mean Napi2b binding” value with NaPi2b-derived peptide was 1.27e-05 s⁻¹. Moreover, the “kon, Mean Napi2b binding” value with NaPi2b-derived peptide was 170000 M⁻¹ s⁻¹.
